What was measured:
Experiment in all cases: IP/MS, LZTR1 wild type-FLAG, U87
VPS18 = target: T1, VPS18 (human, UniProt Q9P253 2-973)
T1 sequence (looked up): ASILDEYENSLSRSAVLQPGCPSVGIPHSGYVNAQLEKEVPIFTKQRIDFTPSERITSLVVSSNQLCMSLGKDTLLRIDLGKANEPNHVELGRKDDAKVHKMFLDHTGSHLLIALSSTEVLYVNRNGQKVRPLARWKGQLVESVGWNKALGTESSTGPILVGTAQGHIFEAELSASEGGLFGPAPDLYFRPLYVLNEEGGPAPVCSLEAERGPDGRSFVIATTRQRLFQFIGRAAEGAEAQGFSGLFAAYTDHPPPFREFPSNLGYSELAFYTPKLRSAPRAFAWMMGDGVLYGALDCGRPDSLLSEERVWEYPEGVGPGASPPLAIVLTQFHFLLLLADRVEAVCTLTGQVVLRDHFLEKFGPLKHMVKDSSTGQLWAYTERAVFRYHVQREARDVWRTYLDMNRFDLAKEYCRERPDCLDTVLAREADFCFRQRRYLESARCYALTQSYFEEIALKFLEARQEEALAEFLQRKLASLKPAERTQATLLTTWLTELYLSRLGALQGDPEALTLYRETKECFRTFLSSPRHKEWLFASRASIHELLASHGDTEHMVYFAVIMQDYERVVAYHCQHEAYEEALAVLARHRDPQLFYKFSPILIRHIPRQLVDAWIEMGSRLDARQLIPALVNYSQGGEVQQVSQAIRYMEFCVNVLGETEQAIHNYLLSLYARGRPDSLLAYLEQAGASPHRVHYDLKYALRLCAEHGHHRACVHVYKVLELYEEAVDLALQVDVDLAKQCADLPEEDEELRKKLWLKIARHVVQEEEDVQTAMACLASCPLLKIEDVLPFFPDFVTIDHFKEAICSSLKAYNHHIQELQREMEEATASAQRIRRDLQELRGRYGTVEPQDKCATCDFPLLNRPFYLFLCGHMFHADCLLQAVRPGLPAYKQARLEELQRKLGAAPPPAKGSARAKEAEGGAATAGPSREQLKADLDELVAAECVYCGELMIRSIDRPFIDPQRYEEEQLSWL
In short: (§1)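 Gel slices were reduced with 5 mM DTT, alkylated with 11 mM IAA and digested overnight at 37° C. with trypsin. Peptides were analysed on an Orbitrap Fusion Tribrid by LC-MS/MS.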

CDC42BPA = CDC42BPA (human, UniProt Q5VT25 1-1732, limits assumed)
In short: as §1

MTR = MTR (human, UniProt Q99707 1-1265, limits assumed)
In short: as §1

CC2D1A = target: T2, CC2D1A (human, UniProt Q6P1N0 1-951, limits assumed)
T2 sequence (looked up): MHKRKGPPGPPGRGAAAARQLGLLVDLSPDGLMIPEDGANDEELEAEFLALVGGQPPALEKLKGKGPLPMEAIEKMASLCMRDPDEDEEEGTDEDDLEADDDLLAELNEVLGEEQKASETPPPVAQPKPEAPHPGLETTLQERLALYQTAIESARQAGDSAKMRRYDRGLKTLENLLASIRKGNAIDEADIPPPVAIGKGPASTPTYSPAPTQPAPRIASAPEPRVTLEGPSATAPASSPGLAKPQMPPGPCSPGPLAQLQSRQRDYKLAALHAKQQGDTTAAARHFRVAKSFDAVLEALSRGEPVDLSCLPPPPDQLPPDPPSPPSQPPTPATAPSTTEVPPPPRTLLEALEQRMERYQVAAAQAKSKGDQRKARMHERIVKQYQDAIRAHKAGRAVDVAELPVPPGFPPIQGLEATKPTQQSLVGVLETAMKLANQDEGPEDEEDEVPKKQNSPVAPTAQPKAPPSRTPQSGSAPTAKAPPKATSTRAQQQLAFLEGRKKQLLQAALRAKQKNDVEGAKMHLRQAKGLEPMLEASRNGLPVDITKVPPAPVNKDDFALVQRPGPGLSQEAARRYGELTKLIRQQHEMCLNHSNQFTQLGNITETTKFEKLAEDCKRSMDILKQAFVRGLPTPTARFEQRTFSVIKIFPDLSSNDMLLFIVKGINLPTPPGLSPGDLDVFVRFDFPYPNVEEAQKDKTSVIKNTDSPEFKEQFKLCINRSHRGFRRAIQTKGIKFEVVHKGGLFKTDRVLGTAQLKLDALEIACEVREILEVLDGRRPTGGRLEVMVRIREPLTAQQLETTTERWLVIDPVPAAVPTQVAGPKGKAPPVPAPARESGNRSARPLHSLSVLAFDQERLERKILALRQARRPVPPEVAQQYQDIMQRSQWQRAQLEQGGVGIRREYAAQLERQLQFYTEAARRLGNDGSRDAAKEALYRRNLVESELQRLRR
In short: as §1

Measured: binding result

CDC42BPA, sequence (Q5VT25 whole entry): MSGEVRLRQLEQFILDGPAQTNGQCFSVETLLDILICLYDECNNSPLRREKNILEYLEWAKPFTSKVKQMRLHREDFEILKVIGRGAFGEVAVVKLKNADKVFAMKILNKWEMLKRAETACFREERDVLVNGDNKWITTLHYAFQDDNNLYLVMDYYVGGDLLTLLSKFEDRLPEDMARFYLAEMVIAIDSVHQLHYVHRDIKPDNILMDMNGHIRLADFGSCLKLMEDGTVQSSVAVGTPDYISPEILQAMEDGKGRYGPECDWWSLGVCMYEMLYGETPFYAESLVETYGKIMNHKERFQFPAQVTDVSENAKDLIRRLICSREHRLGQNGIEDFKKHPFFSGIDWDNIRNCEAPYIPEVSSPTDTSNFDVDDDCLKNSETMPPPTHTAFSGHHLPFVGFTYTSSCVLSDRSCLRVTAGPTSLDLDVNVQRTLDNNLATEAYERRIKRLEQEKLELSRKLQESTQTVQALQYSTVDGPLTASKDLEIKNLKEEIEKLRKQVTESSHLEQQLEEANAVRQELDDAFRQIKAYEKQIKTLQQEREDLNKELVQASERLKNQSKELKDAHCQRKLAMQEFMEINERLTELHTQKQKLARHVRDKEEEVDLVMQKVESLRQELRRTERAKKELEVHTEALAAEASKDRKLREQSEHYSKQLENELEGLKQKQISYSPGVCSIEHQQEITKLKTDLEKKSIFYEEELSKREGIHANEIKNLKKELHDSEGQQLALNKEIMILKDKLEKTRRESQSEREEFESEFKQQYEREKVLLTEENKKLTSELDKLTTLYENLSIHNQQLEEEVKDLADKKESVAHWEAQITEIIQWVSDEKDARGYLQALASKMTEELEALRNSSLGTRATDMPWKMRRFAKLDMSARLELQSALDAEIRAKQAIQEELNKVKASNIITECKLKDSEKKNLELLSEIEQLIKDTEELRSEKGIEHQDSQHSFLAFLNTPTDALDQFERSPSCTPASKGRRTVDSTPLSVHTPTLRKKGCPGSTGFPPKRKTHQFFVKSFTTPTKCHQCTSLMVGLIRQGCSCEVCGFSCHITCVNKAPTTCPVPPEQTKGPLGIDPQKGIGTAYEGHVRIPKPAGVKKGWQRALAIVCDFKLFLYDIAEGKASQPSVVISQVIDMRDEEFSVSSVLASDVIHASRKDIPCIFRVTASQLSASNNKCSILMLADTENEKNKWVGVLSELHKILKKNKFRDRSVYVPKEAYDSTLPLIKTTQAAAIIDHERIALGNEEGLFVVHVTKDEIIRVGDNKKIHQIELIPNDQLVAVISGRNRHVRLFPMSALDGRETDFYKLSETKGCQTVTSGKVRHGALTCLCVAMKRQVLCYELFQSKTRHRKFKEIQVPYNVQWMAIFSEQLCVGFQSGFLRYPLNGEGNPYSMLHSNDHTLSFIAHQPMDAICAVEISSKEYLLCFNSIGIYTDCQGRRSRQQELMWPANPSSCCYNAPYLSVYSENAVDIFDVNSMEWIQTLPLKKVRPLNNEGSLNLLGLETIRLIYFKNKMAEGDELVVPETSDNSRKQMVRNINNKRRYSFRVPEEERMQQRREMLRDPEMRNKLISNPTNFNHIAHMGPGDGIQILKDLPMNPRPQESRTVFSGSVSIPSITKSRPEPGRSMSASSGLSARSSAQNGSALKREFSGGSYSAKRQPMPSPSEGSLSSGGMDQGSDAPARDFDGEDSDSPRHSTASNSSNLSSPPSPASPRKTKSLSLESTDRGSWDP
MTR, sequence (Q99707 whole entry): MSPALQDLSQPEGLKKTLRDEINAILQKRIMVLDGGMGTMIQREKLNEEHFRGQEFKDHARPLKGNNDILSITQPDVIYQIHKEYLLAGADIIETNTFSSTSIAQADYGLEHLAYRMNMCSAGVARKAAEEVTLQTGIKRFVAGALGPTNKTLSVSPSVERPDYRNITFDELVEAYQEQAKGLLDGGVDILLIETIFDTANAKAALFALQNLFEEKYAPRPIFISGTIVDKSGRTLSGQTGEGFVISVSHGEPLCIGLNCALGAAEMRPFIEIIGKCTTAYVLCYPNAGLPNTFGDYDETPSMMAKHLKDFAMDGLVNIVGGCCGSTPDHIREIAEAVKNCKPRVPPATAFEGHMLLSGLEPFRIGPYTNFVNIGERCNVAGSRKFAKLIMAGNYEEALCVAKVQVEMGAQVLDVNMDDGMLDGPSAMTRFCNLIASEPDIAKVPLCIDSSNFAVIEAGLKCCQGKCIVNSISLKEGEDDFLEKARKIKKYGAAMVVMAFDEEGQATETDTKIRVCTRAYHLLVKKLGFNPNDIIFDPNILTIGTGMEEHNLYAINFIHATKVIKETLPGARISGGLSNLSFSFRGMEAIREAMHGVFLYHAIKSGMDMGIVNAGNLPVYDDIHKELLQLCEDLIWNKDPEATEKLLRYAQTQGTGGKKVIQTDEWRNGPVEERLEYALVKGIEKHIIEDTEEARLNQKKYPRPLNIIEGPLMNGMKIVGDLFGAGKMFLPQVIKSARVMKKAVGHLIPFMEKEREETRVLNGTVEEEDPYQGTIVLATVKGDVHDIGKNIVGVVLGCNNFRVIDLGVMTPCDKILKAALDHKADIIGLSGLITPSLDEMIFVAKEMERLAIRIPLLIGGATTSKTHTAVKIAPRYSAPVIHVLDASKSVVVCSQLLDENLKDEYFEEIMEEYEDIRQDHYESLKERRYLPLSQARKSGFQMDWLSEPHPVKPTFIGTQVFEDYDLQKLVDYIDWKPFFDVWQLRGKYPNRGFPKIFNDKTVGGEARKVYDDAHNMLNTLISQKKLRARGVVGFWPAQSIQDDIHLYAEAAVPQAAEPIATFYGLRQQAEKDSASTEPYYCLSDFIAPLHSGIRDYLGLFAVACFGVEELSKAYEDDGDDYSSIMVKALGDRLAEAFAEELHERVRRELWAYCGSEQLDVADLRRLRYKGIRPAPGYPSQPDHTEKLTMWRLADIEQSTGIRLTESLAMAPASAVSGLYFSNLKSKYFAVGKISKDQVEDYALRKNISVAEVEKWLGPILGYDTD

B1: LZTR1-FLAG (other, human, UniProt Q8N653 1-840, looked up)
chain: MAGPGSTGGQIGAAALAGGARSKVAPSVDFDHSCSDSVEYLTLNFGPFETVHRWRRLPPCDEFVGARRSKHTVVAYKDAIYVFGGDNGKTMLNDLLRFDVKDCSWCRAFTTGTPPAPRYHHSAVVYGSSMFVFGGYTGDIYSNSNLKNKNDLFEYKFATGQWTEWKIEGRLPVARSAHGATVYSDKLWIFAGYDGNARLNDMWTIGLQDRELTCWEEVAQSGEIPPSCCNFPVAVCRDKMFVFSGQSGAKITNNLFQFEFKDKTWTRIPTEHLLRGSPPPPQRRYGHTMVAFDRHLYVFGGAADNTLPNELHCYDVDFQTWEVVQPSSDSEVGGAEVPERACASEEVPTLTYEERVGFKKSRDVFGLDFGTTSAKQPTQPASELPSGRLFHAAAVISDAMYIFGGTVDNNIRSGEMYRFQFSCYPKCTLHEDYGRLWESRQFCDVEFVLGEKEECVQGHVAIVTARSRWLRRKITQARERLAQKLEQEAAPVPREAPGVAAGGARPPLLHVAIREAEARPFEVLMQFLYTDKIKYPRKGHVEDVLLIMDVYKLALSFQLCRLEQLCRQYIEASVDLQNVLVVCESAARLQLSQLKEHCLNFVVKESHFNQVIMMKEFERLSSPLIVEIVRRKQQPPPRTPLDQPVDIGTSLIQDMKAYLEGAGAEFCDITLLLDGHPRPAHKAILAARSSYFEAMFRSFMPEDGQVNISIGEMVPSRQAFESMLRYIYYGEVNMPPEDSLYLFAAPYYYGFYNNRLQAYCKQNLEMNVTVQNVLQILEAADKTQALDMKRHCLHIIVHQFTKVSKLPTLRSLSQQLLLDIIDSLASHISDKQCAELGADI
notes: Expressed in HEK 293T, HeLa or U87 cells; used as cell lysate; also called LZTR1 wild type-FLAG; LZTR1 WT; not shown: FLAG tag at the C-terminus
binds: VPS18 | CDC42BPA | MTR | CC2D1A
